What all share (assay): SPR
(In SPR one partner is held on a chip, and binding of the other changes the refractive index at the surface.)

For assay [1], the target named is Turnip mosaic virus (TuMV) viral protein-genome linked (VPg), His-tagged (turnip mosaic virus).
Assay [2] has the same target. This is another data set of the same source.
The target is the same in assay [3]. This is another data set of the same source.

The values below come from publication PMC4244113.

In general, Kd refers to the concentration at which binding is half-saturated. A high value points to weaker binding. The term koff denotes the rate constant with which the complex falls apart. One may read the kon as the second-order rate constant of association. Low values mean slow association, high ones fast association.

Like-named read-outs stand apart in the source and are kept apart here.

Chain of Turnip mosaic virus (TuMV) viral protein-genome linked (VPg), His-tagged (turnip mosaic virus) (P89509 1925-2116 limits assumed): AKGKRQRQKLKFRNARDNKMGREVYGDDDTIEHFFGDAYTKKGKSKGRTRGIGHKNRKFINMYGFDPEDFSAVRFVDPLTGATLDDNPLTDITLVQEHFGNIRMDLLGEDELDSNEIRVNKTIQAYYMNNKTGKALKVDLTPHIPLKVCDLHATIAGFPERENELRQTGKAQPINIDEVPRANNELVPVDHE

For “N-terminal 33 residues-deleted human eIF4E (from UniProt P06730 34-217) (domain or fragment)”, in assay [1], the Kd turned out to be 3290 nM, the koff came to 0.00447 s⁻¹ and the on-rate (kon) worked out at 1360 M⁻¹ s⁻¹.

B1: Arabidopsis thaliana eIFiso4E (natural protein)
chain: MATDDVNEPLPAAAELPATEAEKQPHKLERKWSFWFDNQSKKGAAWGASLRKAYTFDTVEDFWGLHETIFQTSKLTANAEIHLFKAGVEPKWEDPECANGGKWTWVVTANRKEALDKGWLETLMALIGEQFDEADEICGVVASVRPQSKQDKLSLWTRTKSNEAVLMGIGKKWKEILDVTDKITFNNHDDSRRSRFTV
As for B1, in assay [2], the Kd worked out at 208 nM, the koff is 0.00432 s⁻¹ and the kon was 20800 M⁻¹ s⁻¹. For the same molecule, in assay [3], the Kd turned out to be 1410 nM, the koff was determined as 0.00459 s⁻¹ and the kon was 3250 M⁻¹ s⁻¹.
